Reference: patent publication EP4714971A1 (Shanghai Hansoh Biomedical Co., Ltd., dated 2024)
Like-named read-outs stand apart in the source and are kept apart here.

T1: human SEZ6 expressed on stably transfected CHO-K1 cells (human, UniProt Q53EL9 20-994)
T1 construct: also called CHO-SEZ6; hSEZ6
T1 sequence: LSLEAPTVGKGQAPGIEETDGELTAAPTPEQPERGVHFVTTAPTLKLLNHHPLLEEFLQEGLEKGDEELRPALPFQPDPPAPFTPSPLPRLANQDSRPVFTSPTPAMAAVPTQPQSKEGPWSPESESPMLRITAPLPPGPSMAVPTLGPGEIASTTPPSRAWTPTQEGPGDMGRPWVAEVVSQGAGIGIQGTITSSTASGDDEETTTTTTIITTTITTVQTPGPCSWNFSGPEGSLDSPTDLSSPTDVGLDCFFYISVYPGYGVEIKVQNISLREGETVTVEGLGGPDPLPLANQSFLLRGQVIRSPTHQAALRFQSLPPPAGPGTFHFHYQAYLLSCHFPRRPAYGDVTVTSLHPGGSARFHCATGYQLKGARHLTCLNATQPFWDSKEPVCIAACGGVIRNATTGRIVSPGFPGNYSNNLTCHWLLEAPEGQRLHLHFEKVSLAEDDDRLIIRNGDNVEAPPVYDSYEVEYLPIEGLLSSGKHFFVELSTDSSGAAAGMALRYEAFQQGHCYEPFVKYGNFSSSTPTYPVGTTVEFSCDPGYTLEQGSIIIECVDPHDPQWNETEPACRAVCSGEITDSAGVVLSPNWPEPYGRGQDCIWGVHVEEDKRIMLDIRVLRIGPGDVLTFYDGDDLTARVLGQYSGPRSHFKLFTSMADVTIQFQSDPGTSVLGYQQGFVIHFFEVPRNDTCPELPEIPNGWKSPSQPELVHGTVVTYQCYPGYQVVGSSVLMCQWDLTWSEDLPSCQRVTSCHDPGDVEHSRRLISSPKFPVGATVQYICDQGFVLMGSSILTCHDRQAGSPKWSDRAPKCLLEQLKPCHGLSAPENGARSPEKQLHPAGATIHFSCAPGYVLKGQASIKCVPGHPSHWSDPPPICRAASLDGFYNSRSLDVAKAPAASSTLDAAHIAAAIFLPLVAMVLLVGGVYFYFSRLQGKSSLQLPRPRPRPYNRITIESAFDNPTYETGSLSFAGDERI

T2: cynomolgus monkey SEZ6 expressed on stably transfected CHO-K1 cells (cynomolgus monkey, UniProt Q53EL9 20-994 (human entry))
T2 construct: also called CHO-cynoSEZ6; monkey SEZ6 on the cell membrane
T2 chain: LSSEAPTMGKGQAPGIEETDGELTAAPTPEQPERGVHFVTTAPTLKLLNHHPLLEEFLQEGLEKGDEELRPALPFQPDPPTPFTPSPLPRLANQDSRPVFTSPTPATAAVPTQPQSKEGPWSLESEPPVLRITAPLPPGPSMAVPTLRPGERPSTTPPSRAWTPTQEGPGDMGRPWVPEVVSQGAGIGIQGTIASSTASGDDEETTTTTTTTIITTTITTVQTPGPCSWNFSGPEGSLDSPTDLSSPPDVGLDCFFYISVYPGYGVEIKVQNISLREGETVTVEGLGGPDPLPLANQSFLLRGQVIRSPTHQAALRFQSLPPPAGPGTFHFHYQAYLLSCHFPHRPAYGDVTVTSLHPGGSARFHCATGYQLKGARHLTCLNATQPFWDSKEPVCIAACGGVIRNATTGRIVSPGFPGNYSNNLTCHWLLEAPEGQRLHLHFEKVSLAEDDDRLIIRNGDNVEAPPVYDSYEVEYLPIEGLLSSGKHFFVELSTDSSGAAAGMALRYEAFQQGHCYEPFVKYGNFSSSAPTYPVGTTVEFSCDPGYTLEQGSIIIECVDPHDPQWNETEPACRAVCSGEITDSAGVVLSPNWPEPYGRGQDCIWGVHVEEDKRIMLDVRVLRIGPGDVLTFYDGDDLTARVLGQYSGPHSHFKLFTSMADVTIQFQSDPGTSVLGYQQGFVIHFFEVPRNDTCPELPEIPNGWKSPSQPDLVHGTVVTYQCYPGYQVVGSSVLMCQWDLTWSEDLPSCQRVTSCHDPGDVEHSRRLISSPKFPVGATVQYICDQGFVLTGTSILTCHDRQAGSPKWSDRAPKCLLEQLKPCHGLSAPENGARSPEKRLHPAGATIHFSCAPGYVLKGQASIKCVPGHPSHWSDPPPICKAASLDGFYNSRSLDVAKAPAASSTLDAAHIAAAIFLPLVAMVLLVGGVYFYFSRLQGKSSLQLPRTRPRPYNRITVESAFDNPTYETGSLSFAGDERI


Assays:
[1] = molecular target: T1, human SEZ6 expressed on stably …; test: flow cytometry on CHO-K1 cells expressing human SEZ6
[2] = molecular target: T2, cynomolgus monkey SEZ6 expressed on …; test: flow cytometry on CHO-K1 cells expressing cynomolgus monkey SEZ6
[3] = molecular target: T1, human SEZ6 expressed on stably …; test: flow cytometry on CHO-K1 cells expressing human SEZ6; remark: listed apart in the source
[4] = molecular target: T1, human SEZ6 expressed on stably …; test: as above; remark: listed apart in the source

Binder | EC50 [1] [pM] | MFImax [1] | EC50 [2] [pM] | MFImax [2] | EC50 [3] [pM] | MFImax [3] | EC50 [4] [pM] | MFImax [4]
cAb3031 (antibody, V domains shown) VH: DVQLQESGPGLVKPSQSLSLTCSVTGQSITSGYFWNWIRQLPGNKLEWMGHIRYDGNNNYNPSLKNRVSITRDTSKNQFFLKLNSVTTEDTATYYCARWLLRYYAMDSWGQGTSVTVSS VL: not shown | 420 | 5180 | 540 | 15200 | – | – | – | –
cAb3034 (antibody, V domains shown) VH: QVQLQQSGAELARPGASVKMSCKASGYTFTSYTMHWVKQRPGQGLEWIGYINPRSDYTKYNQKVKDKATLTADKSSSTAYMQLSSLTSEDSAVYYCARGGLGLDYWGQGTTLTVSS VL: DIQMTQSPSSLSASLGERVSLTCRASQEISGYLSWLQQTPDGTIKRLIYAASTLHSGVPKRFSGSRSGSDYSLTISSLESEDFAGYYCLQYASYPYTFGGGTKLEIK | 130 | 10100 | 370 | 17300 | – | – | – | –
cAb3046 (antibody, V domains shown) VH: QVQLQQSGAELARPGASVKMSCKASGYTFTSYTMHWVKQRPGQGLEWIGYINPSSDYTKYNQKFKGKATMTADKSSSTAYMQLSSLTSEDSAVYYCGRGLVPFAYWGQGTLVTVSA VL: DIQMTQSPSSLSASLGERVSLTCRASQEISGYLIWLQQKPDGTIKRLIYAASTLDSGVPKRVSGSRSGSDYSLTISSLESEDFADYYCLQYASYPLTFGGGTKLELK | 60 | 5180 | 480 | 16200 | – | – | – | –
cAb314 (Fc fusion, VHH-hFc expressed in 293 cells; Parent of PR0071; also called chimeric nanobody; camel-derived SEZ6 chimeric antibody; not shown: The human Fc (hFc) of the VHH-hFc construct) VHH: HVQLVESGGGSVQAGGSLRLSCAVSGFTSSRGWMAWFRQAPGKEREGVAVIGRRSGDIYYADSLKGRFTISHDSTENTLYLQMNNLKPEDTATYYCAVGDQAGHVLTSSPYRYWGQGTQVTVSS | – | – | – | – | – | – | 380 | 8480
cAb3009 (antibody, V domains shown) VH: QVQLQQSGAELVRPGASVTLSCKASGYTFTDYEMHWVRQTPVHGLEWIGGIDPESDNTVYNQKFKGKVTLTEDKSSSTAYMEFRSLTSEDSAVYYCTRGDWYFDVWGTGTTVTVSS VL: DIVMSQSPSSQAVSVGEKVTMTCKSSQSLLNSRTRENYLAWYQQKPGQSPKLLIYWASTRESGVPDRFTGSGSGADFTLTISSVQAEDLAVYYCGQSYNLFTFGSGTKLEIK | 810 | 5420 | 430 | 15600 | – | – | – | –
PR3121 (antibody, human IgG1, kappa, V domains shown, Humanized, human IgG1, kappa; also called humanized antibody of cAb3014) VH: EVQLVQSGAEVKKPGSSVKVSCKASGYTFSIYWMHWVRQAPGQGLEWIGMIHPNSGSTNYNEKFKSRATLTVDKSTSTAYMELSSLRSEDTAVYYCARGGNYVAMDYWGQGTLVTVSS VL: DIQMTQSPSSLSASVGDRVTITCTASSSVSSSYLHWYQQKPGKAPKLLIYSTSNLASGVPSRFSGSGSGTDFTLTISSLQPEDFATYYCHQYHRSLTFGGGTKVEIKR | – | – | – | – | 450 | 1020 | – | –
PR3123 (antibody, human IgG1, kappa, V domains shown, Humanized, human IgG1, kappa; Only the order of listing separates it from PR3121; also called humanized antibody of cAb3014) VH: EVQLVQSGAEVKKPGSSVKVSCKASGYTFSIYWMHWVRQAPGQGLEWIGMIHPNSGSTNYNEKFKSRATLTVDKSTSTAYMELSSLRSEDTAVYYCARGGNYVAMDYWGQGTLVTVSS VL: DIQLTQSPSSLSASVGDRVTMTCTASSSVSSSYLHWYQQKPGKSPKLWIYSTSNLASGVPSRFSGSGSGTDYTLTISSLQPEDFATYYCHQYHRSLTFGGGTKVEIKR | – | – | – | – | 560 | 966 | – | –

Now from value to binder:

EC50 [1] [pM] | MFImax [1] | EC50 [2] [pM] | MFImax [2] | EC50 [3] [pM] | MFImax [3] | EC50 [4] [pM] | MFImax [4] | Binder
850 | 3030 | 650 | 13400 | – | – | – | – | cAb3014 (antibody, V domains shown) VH: QVQLQQPGAELVKPGASVKLSCKASGYTFSIYWMHWVKQRPGQGLEWIGMIHPNSGSTNYNEKFKSKATLTVDKSSSTAYMQLSSLTSEDSAVYYCARGGNYVAMDYWGQGTSVTVSS VL: QIVLTQSPAIMSASLGERVTMTCTASSSVSSSYLHWYQQKPGSSPKLWIYSTSNLASGVPARFSGSGSGTSYSLTISSMEAEDAATYYCHQYHRSLTFGSGTKLEIK
420 | 6560 | 950 | 14600 | – | – | – | – | cAb3056 (antibody, V domains shown) VH: QVQLQQSGPELMKPGASVKISCKASGYTFTDYYINWMKQRPGQGLEWIGWIFPGSDNPYYNEMFKDKATVSVDKSSSAVFMLLTSLTSEDSAVYFCARGRYYGLYTMDYWGQGTSVTVSS VL: DIQMTQTTSSLSASLGDRVTISCRASQDIRNYLNWYQQKADGTVKFLIYYTSRLHSGVPSRFSGSGSGTDFSLTISNLEQEDVATYFCQQGNTLPWTFGGGTKVEIK
– | – | – | – | 1720 | 1210 | – | – | PR3132 (antibody, human IgG1, kappa, V domains shown, Humanized, human IgG1, kappa; also called humanized antibody of cAb3056) VH: EVQLVQSGAEVKKPGASVKISCKASGYTFTDYYINWMRQAPGQGLEWIGWIFPGSDNPYYNEMFKDRVTVTVDKSTSTVYMELSSLRSEDTAVYFCARGRYYGLYTMDYWGQGTLVTVSS VL: DIQMTQSPSSLSASVGDRVTITCRASQDIRNYLNWYQQKPGKAPKFLIYYTSRLHSGVPSRFSGSGSGTDFTLTISSLQPEDFATYYCQQGNTLPWTFGGGTKVEIKR
350 | 4830 | 410 | 15000 | – | – | – | – | cAb3006 (antibody, V domains shown) VH: QVQLQQSGAELARPGASVTLSCKASGYTFTDYEMHWVKETPVDGLEWIGGIDPETDNTVYNQKFKVKAILTEDKSSRIAYMELRSLTSEDSAVYYCTRGDWYFDVWGTGTTVTVSS VL: DIVMSQSPSSQAVSVGEKVTMSCKSSQSLLNSRTRENYLAWYQQKAGQSPKLLIYWASTRDSGVPDRFTGSGSGTDFTLTINSVQAEDLAVYYCKQSYNLFTFGSGTKLEIK
520 | 4920 | 410 | 14700 | – | – | – | – | cAb3005 (antibody, V domains shown) VH: QVQLQQSGAELARPGASVTLSCKASGYKFTDYEMHWVKETPVNGLEWIGGIDPETENTVYNQKFKVKAILTEDKSSRTAYMELRSLTSEDSAVYYCTRGDWYFDVWGTGTTVTVSS VL: DIVMSQSPSSQAVSVGEKVTMSCKSSQSLLNSRTRENYLAWYQQKAGQSPKLLIYWASTRDSGVPDRFTGSGSGTAFTLTINSVQAEDLAVYYCKQSYNLFTFGSGTKLEIK
680 | 5110 | 420 | 14300 | – | – | – | – | cAb3003 (antibody, V domains shown) VH: QVQLQQSGAELVRPGASVTLSCKASGYTFTGYEMHWVKQTPVHGLEWIGGIDPETDNTVYNQKFKGKAILTEDKSSSTAYMELRRLTSEDSAVYYCTRGDWYFDIWGTGTTVTVSS VL: DIVLSQSPSSQAVSVGEKVTMSCKSSQSLLNSRTRENYLAWYQQKPGQSPKLLIYWASTRESGVPDRFTGSGSGTDFTLTISSVQAEDLAVYYCQQSYNLFTFGSGTILEIK
– | – | – | – | – | – | 230 | 6600 | cAb025 (Fc fusion, VHH-hFc expressed in 293 cells; Parent of PR0069; also called chimeric nanobody; camel-derived SEZ6 chimeric antibody; not shown: The human Fc (hFc) of the VHH-hFc construct) VHH: EVQLVESGGGSVQPGGSLRLSCEASGLTYNKDCMAWFRQAPGKEREGVAIINGVGRTRYADSVKGRFTISKDNAKNTLYLQMNNLKPEDTAMYYCAAQRASSSCGSLSRAWYDYWGRGTQVTVSS
